This note sets out measurements from patent US20110135657A1 (published 2011).

Substitutions are numbered along the chain they refer to.

Sequences and labels used below:
B1: 17D8 (antibody, human IgG2, kappa, V domains shown)
VH: EVQLLESGGGLVQPGGYLRLSCAASGFTFSTYAMSWVRQAPGKGLEWVSAISGSGVSTYYADSVKGRFTISRDNSKNTLYLQMNSLRAEDTAVYYCAKSLIVVMVYVLDYWGQGTLVTVSS
VL: EIVLTQSPGTLSLSPGERATLSCRASQSVSGNYLAWYQQKPGQAPRLLIYGASSRATGIPDRFSGSGSGTDFTLTISRLEPEDFAVYYCQQYGSAPLTFGGGTKVEIKR
B2: 18B11.1 (antibody, human IgG2, kappa, V domains shown)
VH: EVQLVESGGGLVKPGGSLRLSCAASGFTFSDAWMSWVRQAPGKGLEWVGRIKSKTDGGTTDYAAPVKGRFTISRDDSKNTLYLQMNSLKTEDTAVYFCTSTYSSGWYVWDYYGMDVWGQGTTVTVSS
VL: DIVMTQSPLSLPVTPGEPASISCRSSQSLLYYNGFTYLDWFLQKPGQSPHLLIYLGSNRASGVPDRFSGSVSGTDFTLKISRVEAEDVGVYYCMQSLQTPFTFGPGTKVDIKR
notes: fully human monoclonal antibody; full chains H11/L10
B3: 20D4 (antibody, human IgG2, kappa, V domains shown)
VH: QVQLVQSGAEVKKPGASVKVSCKVSGYTLTDLSMHWVRQAPGKGLEWMGGFDPEDGETIYAQKFQGRITMTEDTSTDTAYMELSSLRSEDTAVYYCASIVVVPAAIQSYYYYYGMGVWGQGTTVTVSS
VL: DIQLTQSPSSLSASIGDRVTITCRASQDIRYDLGWYQQKPGKAPKRLIYAASSLQSGVPSRFSGSGSGTEFTLTVSSLQPEDFATYYCLQHNSYPLTFGGGTKVEIER
notes: fully human monoclonal antibody; full chains H12/L12; also called 20D4.1
B4: 12E4 (antibody, human IgG2, kappa, V domains shown)
VH: B1 VH with Y17S, G26R, A50G, M104I, V107A
VL: B1 VL with S28N, V29F, S30D, G31S, R62N, V86M, A95S
notes: fully human monoclonal antibody; full chains H8/L7; also called 12E4.1
B5: 26H11 (antibody, human IgG2, kappa, V domains shown)
VH: B1 VH with Y59N
VL: B1 VL with V86M, A95S, T103S
notes: fully human monoclonal antibody; full chains H7/L6; also called 26H11.1

In the first assay the target is T1, soluble human FGFR1c/β-Klotho ECD-Fc complex (human).
T1 construct: Both entries start at residue 1 of the precursors; also called soluble FGF21R; soluble FGF21R-Fc
T1 sequence (chain, as listed by the source limits assumed, chain 1 of 2): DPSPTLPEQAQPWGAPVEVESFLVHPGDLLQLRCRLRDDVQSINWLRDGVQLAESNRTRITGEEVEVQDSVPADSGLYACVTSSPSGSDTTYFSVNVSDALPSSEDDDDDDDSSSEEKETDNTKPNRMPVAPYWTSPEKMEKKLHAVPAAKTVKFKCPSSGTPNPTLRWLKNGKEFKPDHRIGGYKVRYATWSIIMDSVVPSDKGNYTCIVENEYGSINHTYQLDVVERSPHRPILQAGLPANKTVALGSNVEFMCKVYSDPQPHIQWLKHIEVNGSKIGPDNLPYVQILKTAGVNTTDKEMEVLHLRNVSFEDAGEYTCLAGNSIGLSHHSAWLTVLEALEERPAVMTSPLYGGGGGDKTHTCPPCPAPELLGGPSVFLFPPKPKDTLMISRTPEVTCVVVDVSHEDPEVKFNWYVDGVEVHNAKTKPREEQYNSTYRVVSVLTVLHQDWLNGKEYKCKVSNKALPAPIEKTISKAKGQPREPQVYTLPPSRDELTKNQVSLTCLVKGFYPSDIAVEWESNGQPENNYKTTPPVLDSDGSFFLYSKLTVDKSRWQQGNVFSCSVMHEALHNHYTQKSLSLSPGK
T1 sequence (chain, as listed by the source limits assumed, chain 2 of 2): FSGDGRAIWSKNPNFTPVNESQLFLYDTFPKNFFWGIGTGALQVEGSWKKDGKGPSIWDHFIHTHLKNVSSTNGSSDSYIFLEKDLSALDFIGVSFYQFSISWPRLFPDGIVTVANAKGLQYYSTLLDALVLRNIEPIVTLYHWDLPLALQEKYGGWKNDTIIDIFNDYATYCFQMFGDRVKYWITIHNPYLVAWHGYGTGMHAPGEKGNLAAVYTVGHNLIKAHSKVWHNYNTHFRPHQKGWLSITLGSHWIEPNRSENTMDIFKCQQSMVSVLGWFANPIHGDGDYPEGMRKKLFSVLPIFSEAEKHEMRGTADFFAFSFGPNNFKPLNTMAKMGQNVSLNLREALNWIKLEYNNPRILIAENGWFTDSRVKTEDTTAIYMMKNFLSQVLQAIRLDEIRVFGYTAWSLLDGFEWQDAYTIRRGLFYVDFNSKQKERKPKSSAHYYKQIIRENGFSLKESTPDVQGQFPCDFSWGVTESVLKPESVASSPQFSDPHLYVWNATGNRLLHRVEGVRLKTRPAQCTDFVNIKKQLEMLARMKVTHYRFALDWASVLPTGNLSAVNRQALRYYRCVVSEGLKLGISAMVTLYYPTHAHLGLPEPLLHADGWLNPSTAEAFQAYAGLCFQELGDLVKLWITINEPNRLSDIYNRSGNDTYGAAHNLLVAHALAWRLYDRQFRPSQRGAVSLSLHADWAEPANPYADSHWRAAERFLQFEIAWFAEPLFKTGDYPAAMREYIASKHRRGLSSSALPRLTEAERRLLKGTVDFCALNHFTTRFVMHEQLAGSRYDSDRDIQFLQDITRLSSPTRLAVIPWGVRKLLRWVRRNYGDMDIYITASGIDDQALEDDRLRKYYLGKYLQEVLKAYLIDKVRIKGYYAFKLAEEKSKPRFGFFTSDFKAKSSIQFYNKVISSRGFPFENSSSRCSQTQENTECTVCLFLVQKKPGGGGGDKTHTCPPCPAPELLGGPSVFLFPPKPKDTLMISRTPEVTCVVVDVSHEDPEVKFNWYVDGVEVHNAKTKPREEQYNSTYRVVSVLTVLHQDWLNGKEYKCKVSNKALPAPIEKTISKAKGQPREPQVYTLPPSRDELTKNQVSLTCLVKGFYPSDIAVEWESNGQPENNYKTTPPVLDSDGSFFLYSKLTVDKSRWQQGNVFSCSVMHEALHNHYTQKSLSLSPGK
Description: Biacore, antibody immobilized on the sensor chip. The text has this:
(§1) Soluble human FGFR1c/β-Klotho ECD-Fc complex or β-Klotho was then captured on the immobilized antibody surfaces.
As to B1, the binding result is “binds”.

The target of a further assay is T2, denatured human FGFR1c (lysate of CHO cells stably expressing FGF21 receptor, non-reducing SDS-PAGE, blotted) (human, UniProt P11362 22-822).
T2 construct: DENATURED protein on a Western blot, not the native fold; also called denatured FGFR1c; denatured receptor proteins
T2 sequence (P11362 22-822 limits assumed): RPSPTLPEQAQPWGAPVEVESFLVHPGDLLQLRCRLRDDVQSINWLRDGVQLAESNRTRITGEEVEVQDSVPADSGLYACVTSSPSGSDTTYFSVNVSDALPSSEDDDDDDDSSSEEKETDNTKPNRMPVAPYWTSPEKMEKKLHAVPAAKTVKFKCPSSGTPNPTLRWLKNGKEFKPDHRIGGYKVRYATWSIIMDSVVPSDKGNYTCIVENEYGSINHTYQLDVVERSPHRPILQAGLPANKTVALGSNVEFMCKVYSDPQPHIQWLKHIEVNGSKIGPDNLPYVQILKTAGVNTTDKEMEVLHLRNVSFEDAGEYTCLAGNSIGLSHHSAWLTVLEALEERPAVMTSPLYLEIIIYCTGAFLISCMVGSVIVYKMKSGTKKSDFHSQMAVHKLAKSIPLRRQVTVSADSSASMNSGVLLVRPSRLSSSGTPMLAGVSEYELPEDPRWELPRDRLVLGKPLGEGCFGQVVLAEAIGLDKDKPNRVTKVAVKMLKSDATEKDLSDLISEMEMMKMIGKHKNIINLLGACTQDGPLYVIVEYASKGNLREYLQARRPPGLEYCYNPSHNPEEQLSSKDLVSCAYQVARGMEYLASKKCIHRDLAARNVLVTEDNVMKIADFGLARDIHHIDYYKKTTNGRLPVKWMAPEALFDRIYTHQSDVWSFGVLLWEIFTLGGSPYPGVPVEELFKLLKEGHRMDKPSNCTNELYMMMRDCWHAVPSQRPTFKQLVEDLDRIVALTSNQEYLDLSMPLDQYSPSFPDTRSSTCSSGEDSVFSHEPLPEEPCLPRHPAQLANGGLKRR
As to the kind of experiment: Western blot of CHO/FGF21 receptor lysate, non-reducing SDS-PAGE (denatured protein). How it is done:
20 μl of cell lysate was loaded per lane on adjacent lanes separated with a molecular weight marker lane on 4-20% SDS-PAGE gels. Following electrophoresis, the gels were blotted onto 0.2μ nitrocellulose filters. The blots were treated with Tris-buffered saline/Triton-X (TBST) plus 5% non-fat milk (blocking buffer) for 30 minutes. The blots were then cut along the molecular weight marker lanes. […] Blots were incubated with the antibodies for one hour at room temperature, followed by three washes with TBST+1% milk. The blots were then probed with anti-human or anti-goat IgG-HRP secondary antibodies for 20 min. Blots were given three 15 min. washes with TBST followed by treatment with Pierce Supersignal West Dura developing reagent (1 min.) and exposure to Kodak Biomax X-ray film.
On the technique in general: Immunoblotting shows a protein as a band on a membrane.
As to B2, the binding result is “no binding”.

Turning to B3, the binding result is given as “no binding”.

Take B4: the binding result is reported as “no binding”.

In the case of B5, the binding result is reported as “no binding”.

The next assay addresses human FGF21 receptor (FGF21R): full length human FGFR1c and full length human β-Klotho co-expressed at the … (human, UniProt P11362 22-822; Q86Z14 53-1044). Description: cell-based or functional assay.
Take B3: the “Activity (%) = % of FGF21 activity, luciferase reporter, AM-1/D FGFR1c+β-Klotho Luc clone; antibody combined with isotype IgG2k control” value (“Activity (%) = % of FGF21 activity” for short) is 12.5 % of FGF21 activity.

Regarding B4, the “Activity (%) = % of FGF21 activity” value was 25.4 % of FGF21 activity.

Turning to B5, the “Activity (%) = % of FGF21 activity” value was 17.9 % of FGF21 activity.

The target in a further assay is T3, soluble human β-Klotho (Biacore, Example 8) (human, UniProt Q86Z14 53-996, limits assumed).
T3 construct: also called soluble β-Klotho
As to the kind of experiment: Biacore competition binning; test antibody injected over soluble receptor captured on immobilized 24H11, 17D8 or 1A2.1.
From the text: as §1
A general note: In SPR one partner is held on a chip, and binding of the other changes the refractive index at the surface.
For the molecule B3, the binding result is on record as “binds”.

Regarding B4, the binding result is reported as “binds”.

As to B5, the binding result is on record as “binds”.

In the case of B1, the binding result was “binds”.
